Substrate in the data set: Nc1ncnc2c1ncn2[C@@H]1O[C@H](COP(=O)(O)OP(=O)(O)OP(=O)(O)O)[C@@H](O)[C@H]1O
The data set is described as follows: purified protein. The following applies: pH 7.0; 25.0 °C.

Drawing on publication PMC9073325, this text covers Km and kcat for one protein.

B1: SOBIR1-KD (Arabidopsis thaliana) (protein)
chain: SIFSPLIKKAEDLAFLENEEALASLEIIGRGGCGEVFKAELPGSNGKIIAVKKVIQPPKDADELTDEDSKFLNKKMRQIRSEINTVGHIRHRNLLPLLAHVSRPECHYLVYEYMEKGSLQDILTDVQAGNQELMWPARHKIALGIAAGLEYLHMDHNPRIIHRDLKPANVLLDDDMEARISDFGLAKAMPDAVTHITTSHVAGTVGYIAPEFYQTHKFTDKCDIYSFGVILGILVIGKLPSDEFFQHTDEMSLIKWMRNIITSENPSLAIDPKLMDQGFDEQMLLVLKIACYCTLDDPKQRPNSKDVRTMLSQIKH
In general, Km refers to the concentration of substrate that gives half-maximal velocity. In general, kcat refers to the maximal rate divided by the concentration of active sites. As for B1, the Km turned out to be 19.92 ± 0.69 µM and the kcat was 0.660 ± 0.006 s⁻¹.
